Earlier results as cited in publication PMC6310256.

Target: complement C5 (human, recombinant) (UniProt P01031)
Assay: SPR (Biacore), as reported in ref 17
Conditions: cited from earlier work

UniProt P01031, sequence (P01031 whole entry): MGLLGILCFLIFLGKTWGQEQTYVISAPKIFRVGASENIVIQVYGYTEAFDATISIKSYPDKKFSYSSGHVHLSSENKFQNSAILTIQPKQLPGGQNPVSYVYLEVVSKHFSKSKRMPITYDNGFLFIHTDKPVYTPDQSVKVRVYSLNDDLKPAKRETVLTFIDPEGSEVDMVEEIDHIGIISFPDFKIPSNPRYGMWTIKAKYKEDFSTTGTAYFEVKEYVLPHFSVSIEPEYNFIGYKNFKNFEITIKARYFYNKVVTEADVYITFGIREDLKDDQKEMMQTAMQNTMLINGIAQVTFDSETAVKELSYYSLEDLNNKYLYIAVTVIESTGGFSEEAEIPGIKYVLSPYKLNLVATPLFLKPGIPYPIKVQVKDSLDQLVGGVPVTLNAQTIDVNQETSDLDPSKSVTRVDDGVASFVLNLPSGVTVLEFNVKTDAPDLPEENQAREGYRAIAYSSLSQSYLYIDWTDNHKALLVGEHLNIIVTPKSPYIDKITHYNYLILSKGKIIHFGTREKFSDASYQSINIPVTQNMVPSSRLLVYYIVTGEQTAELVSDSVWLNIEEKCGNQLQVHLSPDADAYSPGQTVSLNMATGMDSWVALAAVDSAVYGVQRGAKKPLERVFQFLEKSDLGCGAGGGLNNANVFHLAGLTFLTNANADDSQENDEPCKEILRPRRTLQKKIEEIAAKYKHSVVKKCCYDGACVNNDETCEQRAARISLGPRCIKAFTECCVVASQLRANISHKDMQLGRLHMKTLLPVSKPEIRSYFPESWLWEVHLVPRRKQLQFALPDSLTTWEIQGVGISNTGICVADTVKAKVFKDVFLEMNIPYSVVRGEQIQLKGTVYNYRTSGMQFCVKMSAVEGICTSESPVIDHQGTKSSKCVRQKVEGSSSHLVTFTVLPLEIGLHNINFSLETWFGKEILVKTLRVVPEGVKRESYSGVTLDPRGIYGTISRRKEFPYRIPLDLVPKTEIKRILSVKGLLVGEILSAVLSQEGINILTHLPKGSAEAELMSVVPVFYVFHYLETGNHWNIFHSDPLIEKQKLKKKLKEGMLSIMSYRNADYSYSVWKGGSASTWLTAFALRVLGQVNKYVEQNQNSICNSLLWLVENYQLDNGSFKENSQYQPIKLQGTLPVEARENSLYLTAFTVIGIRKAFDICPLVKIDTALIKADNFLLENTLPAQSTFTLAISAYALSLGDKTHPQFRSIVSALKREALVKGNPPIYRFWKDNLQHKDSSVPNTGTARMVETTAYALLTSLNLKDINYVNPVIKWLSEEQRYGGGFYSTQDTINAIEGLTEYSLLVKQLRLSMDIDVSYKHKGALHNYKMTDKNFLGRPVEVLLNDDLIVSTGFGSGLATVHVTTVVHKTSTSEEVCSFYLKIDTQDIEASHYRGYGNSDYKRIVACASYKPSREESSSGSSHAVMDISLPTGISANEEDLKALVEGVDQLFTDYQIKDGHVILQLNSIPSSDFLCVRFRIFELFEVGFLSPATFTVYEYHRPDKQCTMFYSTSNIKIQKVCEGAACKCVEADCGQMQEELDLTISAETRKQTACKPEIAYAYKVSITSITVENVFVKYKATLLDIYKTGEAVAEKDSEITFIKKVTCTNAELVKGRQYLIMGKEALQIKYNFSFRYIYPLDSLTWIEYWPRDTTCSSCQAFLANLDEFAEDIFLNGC

Substance: SKY59 (crovalimab, RO7112689) Includes am1-am6 and pm1-pm3 (pm3 is light chain F92K, Kabat), plus charge, deimmunization and Fc mutations that are not listed.
- kd (pH 5.8): 0.0145 s⁻¹
- KD (pH 7.4): 0.152 nM
- ka (pH 7.4): 1.44e+06 M⁻¹ s⁻¹
